Measurements reported in patent US9618524B2, “Method, composition, isolation and identification of a plaque particle and related biomarker” (Plaxgen Inc., priority 2012, dated 2017).

Legend:
Experiment in all cases: Mass spectroscopy proteomics, semi-quantitative binding affinity of serum proteins (plaqueproteome, Table 2)
Settings in all cases: higher number = stronger affinity
[1] = target: T1, Abeta-42 plaque particles (Homo sapiens, UniProt P05067)
T1 construct: Abeta 1-42
Summary of the method: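 AD patient serum or plasma (50% in PBS) was incubated with Abeta-42 aggregates (30 μg) for 1 h at 37 °C, then stained with Thioflavin S for 30 min. Labeled particles were FACS-sorted, trypsin/Lys-C digested overnight and analyzed by MS/MS. Sequest searched human UniProt; Scaffold/Protein Prophet validated the identifications.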

[2] = tested on: High Density cholesterol (Chl Large) plaque particles; parameters: species or system human
Summary of the method: (§1)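 Atherosclerotic plasma/serum (50% in PBS) + 30 μg cholesterol aggregates, 1 hr 37° C; FACS gates split low- vs high-density particles. Acetone precipitation, urea/ProteaseMAX, acrylamide alkylation, overnight Trypsin/Lys C at 37° C; Sequest search, Scaffold/Protein Prophet validation.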

[3] = tested on: Low density cholesterol (Chl small) plaque particles; parameters: species or system human
Summary of the method: as §1

[4] = target: T2, alpha-synuclein plaque particles (Homo sapiens, UniProt P37840)
T2 construct: 140 amino acids polypeptide
Summary of the method: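 AD-subject plasma or serum (800 μL of 50%) mixed with 30 μg preformed alpha-synuclein aggregates for 1 h at 37 °C; Thioflavin S-positive particles isolated by flow sorting. After reduction, acrylamide alkylation and overnight tryptic digestion, serum proteins identified by MS/MS with Sequest and Scaffold.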

Tau plaque particles = tested on: Tau plaque particles; parameters: species or system human
Summary of the method: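 Synthetic Tau-74 and Tau-275 peptides (1 mg/mL PBS, 37° C, 2 h) aggregated; 30 μg aggregates incubated with 50% serum/plasma 1 h at 37° C, stained with Thioflavin S, and plaque particles sorted by flow cytometry. Bound proteins trypsin-digested and identified by MS/MS against human UniProt.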

Molecule | Semi-quantitative analysis of proteins binding to different plaque particles: Abeta-42 [1] | Semi-quantitative analysis of proteins binding to different plaque particles: Chl Large [2] | Semi-quantitative analysis of proteins binding to different plaque particles: Chl small [3] | Semi-quantitative analysis of proteins binding to different plaque particles: Synuclein [4] | Semi-quantitative analysis of proteins binding to different plaque particles: Tau (Tau plaque particles)
Isoform 2 of Haptoglobin-related protein (protein) MHVCVCVCVCVYMPVCVDACMCCEAGRPAFRSFLFSLCSDLGAVISLLLWGRQLFALYSGNDVTDISDDRFPKPPEIANGYVEHLFRYQCKNYYRLRTEGDGVYTLNDKKQWINKAVGDKLPECEAVCGKPKNPANPVQRILGGHLDAKGSFPWQAKMVSHHNLTTGATLINEQWLLTTAKNLFLNHSENATAKDIAPTLTLYVGKKQLVEIEKVVLHPNYHQVDIGLIKLKQKVLVNERVMPICLPSKNYAEVGRVGYVSGWGQSDNFKLTDHLKYVMLPVADQYDCITHYEGSTCPKWKAPKSPVGVQPILNEHTFCVGMSKYQEDTCYGDAGSAFAVHDLEEDTWYAAGILSFDKSCAVAEYGVYVKVTSIQHWVQKTIAEN | 11 | 15 | 12 | 14 | 11
Ceruloplasmin (protein) KEKHYYIGIIETTWDYASDHGEKKLISVDTEHSNIYLQNGPDRIGRLYKKALYLQYTDETFRTTIEKPVWLGFLGPIIKAETGDKVYVHLKNLASRPYTFHSHGITYYKEHEGAIYPDNTTDFQRADDKVYPGEQYTYMLLATEEQSPGEGDGNCVTRIYHSHIDAPKDIASGLIGPLIICKKDSLDKEKEKHIDREFVVMFSVVDENFSWYLEDNIKTYCSEPEKVDKDNEDFQESNRMYSVNGYTFGSLPGLSMCAEDRVKWYLFGMGNEVDVHAAFFHGQALTNKNYRIDTINLFPATLFDAYMVAQNPGEWMLSCQNLNHLKAGLQAFFQVQECNKSSSKDNIRGKHVRHYYIAAEEIIWNYAPSGIDIFTKENLTAPGSDSAVFFEQGTTRIGGSYKKLVYREYTDASFTNRKERGPEEEHLGILGPVIWAEVGDTIRVTFHNKGAYPLSIEPIGVRFNKNNEGTYYSPNYNPQSRSVPPSASHVAPTETFTYEWTVPKEVGPTNADPVCLAKMYYSAVEPTKDIFTGLIGPMKICKKGSLHANGRQKDVDKEFYLFPTVFDENESLLLEDNIRMFTTAPDQVDKEDEDFQESNKMHSMNGFMYGNQPGLTMCKGDSVVWYLFSAGNEADVHGIYFSGNTYLWRGERRDTANLFPQTSLTLHMWPDTEGTFNVECLTTDHYTGGMKQKYTVNQCRRQSEDSTFYLGERTYYIAAVEVEWDYSPQREWEKELHHLQEQNVSNAFLDKGEFYIGSKYKKVVYRQYTDSTFRVPVERKAEEEHLGILGPQLHADVGDKVKIIFKNMATRPYSIHAHGVQTESSTVTPTLPGETLTYVWKIPERSGAGTEDSACIPWAYYSTVDQVKDLYSGLIGPLIVCRRPYLKVFNPRRKLEFALLFLVFDENESWYLDDNIKTYSDHPEKVNKDDEEFIESNKMHAINGRMFGNLQGLTMHVGDEVNWYLMGMGNEIDLHTVHFHGHSFQYKHRGVYSSDVFDIFPGTYQTLEMFPRTPGIWLLHCHVTDHIHAGMETTYTVLQNEDTKSG | 9 | 20 | 22 | 21 | 20
Catalase (protein) ADSRDPASDQMQHWKEQRAAQKADVLTTGAGNPVGDKLNVITVGPRGPLLVQDVVFTDEMAHFDRERIPERVVHAKGAGAFGYFEVTHDITKYSKAKVFEHIGKKTPIAVRFSTVAGESGSADTVRDPRGFAVKFYTEDGNWDLVGNNTPIFFIRDPILFPSFIHSQKRNPQTHLKDPDMVWDFWSLRPESLHQVSFLFSDRGIPDGHRHMNGYGSHTFKLVNANGEAVYCKFHYKTDQGIKNLSVEDAARLSQEDPDYGIRDLFNAIATGKYPSWTFYIQVMTFNQAETFPFNPFDLTKVWPHKDYPLIPVGKLVLNRNPVNYFAEVEQIAFDPSNMPPGIEASPDKMLQGRLFAYPDTHRHRLGPNYLHIPVNCPYRARVANYQRDGPMCMQDNQGGAPNYYPNSFGAPEQQPSALEHSIQYSGEVRRFNTANDDNVTQVRAFYVNVLNEEQRKRLCENIAGHLKDAQIFIQKKAVKNFTEVHPDYGSHIQALLDKYNAEKPKNAIHTFVQSGSHLAAREKANL | 12 | 0 | 0 | 0 | 0
Guanine deaminase (protein) MCAAQMPPLAHIFRGTFVHSTWTCPMEVLRDHLLGVSDSGKIVFLEEASQQEKLAKEWCFKPCEIRELSHHEFFMPGLVDTHIHASQYSFAGSSIDLPLLEWLTKYTFPAEHRFQNIDFAEEVYTRVVRRTLKNGTTTACYFATIHTDSSLLLADITDKFGQRAFVGKVCMDLNDTFPEYKETTEESIKETERFVSEMLQKNYSRVKPIVTPRFSLSCSETLMGELGNIAKTRDLHIQSHISENRDEVEAVKNLYPSYKNYTSVYDKNNLLTNKTVMAHGCYLSAEELNVFHERGASIAHCPNSNLSLSSGFLNVLEVLKHEVKIGLGTDVAGGYSYSMLDAIRRAVMVSNILLINKVNEKSLTLKEVFRLATLGGSQALGLDGEIGNFEVGKEFDAILINPKASDSPIDLFYGDFFGDISEAVIQKFLYLGDDRNIEEVYVGGKQVVPFSSSVKETIHLPASSPHPPPFP | 5 | 0 | 0 | 0 | 0
Peroxiredoxin-1 (protein) SSGNAKIGHPAPNFKATAVMPDGQFKDISLSDYKGKYVVFFFYPLDFTFVCPTEIIAFSDRAEEFKKLNCQVIGASVDSHFCHLAWVNTPKKQGGLGPMNIPLVSDPKRTIAQDYGVLKADEGISFRGLFIIDDKGILRQITVNDLPVGRSVDETLRLVQAFQFTDKHGEVCPAGWKPGSDTIKPDVQKSKEYFSKQK | 5 | 0 | 0 | 0 | 0
Apolipoprotein M (protein) MFHQIWAALLYFYGIILNSIYQCPEHSQLTTLGVDGKEFPEVHLGQWYFIAGAAPTKEELATFDPVDNIVFNMAAGSAPMQLHLRATIRMKDGLCVPRKWIYHLTEGSTDLRTEGRPDMKTELFSSSCPGGIMLNETGQGYQRFLLYNRSPHPPEKCVEEFKSLTSCLDSKAFLLTPRNQEACELSNN | 18 | 0 | 0 | 0 | 0
